No end group written: not given here. *: point of attachment. Biotin = O=C1N[C@H]2[C@H](CS[C@H]2CCCCC(=O)*)N1; Ahx = NCCCCCC(=O)O

The text below walks through data of publication PMC11546610, “Molecular Modeling and In Vitro Functional Analysis of the RGS12 PDZ Domain Variant Associated with High-Penetrance Familial Bipolar Disorder” (International Journal of Molecular Sciences, 2024).

Assay [1] concerns recombinant RGS12 PDZ domain protein. Conditions: biotinylated peptide immobilized on streptavidin chip to 350 RU; 10 mM HEPES pH 7.4, 250 mM NaCl, 0.05% Nonidet P-40, 50 μM EDTA; analyte 300 μM (10 nM to 500 μM); mNotch1 surface subtracted.
Experimental: Optical detection of real-time protein–peptide interactions by surface plasmon resonance was performed using a Biacore 3000 (Cytiva; Marlborough, MA, USA), as per previously described methods [65, 105, 106]. Briefly, biotinylated peptides were separately immobilized on streptavidin-coated SPR chips (Cytiva) to 350 resonance units (RUs). All experiments were performed with the sensor surface, fluidics, and pump equilibrated with Biacore running buffer (10 mM HEPES pH 7.4, 250 mM NaCl, 0.05% (v/v) Nonidet P-40, and 50 μM EDTA). Increasing concentrations (10 nM to 500 μM) of recombinant RGS12 PDZ domain protein (expressed from E. coli culture and purified as previously described in ref. [65]) were separately injected at a flow rate of 10 μL/min with a 300 s dissociation phase. The surface was regenerated between each test concentration by the injection of a denaturing regeneration buffer (1 M NaCl, 50 mM NaOH). Non-specific binding to a biotinylated mNotch1 peptide-bound streptavidin surface was subtracted from each curve (BIA-evaluation Version 3.0 software, Cytiva). Maximal response units for each injection were plotted using GraphPad Prism 5.0.
In assay [2] the test system is isolated rat RGS12 PDZ domain (recombinant GST-fusion protein). On the set-up: method as in PMID 9651375, PMID 17380122, PMID 11771424. Conditions: C-terminal tail peptide; ref [19],[42],[65]; cited from earlier work.
Assay [3] has as its system wildtype RGS12 PDZ domain. Conditions: prior SPR assays; ref [19],[42],[65]; cited from earlier work. The source says: Table 1 Heat map of GLIDE SP-peptide and GLIDE XP scores for predicted docking of four pentameric ligands into the ligand-binding “receptor grid” specified for each of the 20 low-energy structural models (“poses”) of the human RGS12 PDZ domain recorded within PDB id 2KV8. […] Each of the three C-tail ligands was synthesized as an N-terminally biotin-tagged polypeptide and used to create gold nanoparticle biosensors for measuring the binding of these recombinant GST-RGS12 PDZ domain fus ...
(SPR reads the build-up and loss of mass on a sensor chip optically.)

Assay [4] concerns the target T1, R59Q-variant RGS12 PDZ domain GST-fusion protein (Homo sapiens, UniProt O14924, R59Q).
T1 construct: human RGS12 PDZ domain (aa 18–101 of UniProt O14924); purchased GenScript; host or cells: E. coli
T1 sequence (O14924 18-101 R59Q): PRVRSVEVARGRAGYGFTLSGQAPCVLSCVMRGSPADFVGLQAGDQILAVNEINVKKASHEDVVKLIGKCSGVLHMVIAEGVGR
Nature of the assay: SPR single-cycle kinetics (Alto), R59Q-variant PDZ domain. Type of assay: binding. Conditions: R59Q vs wildtype; peptide biosensors; N = 2-4. The protocol:
Wildtype and R59Q-variant versions of the human RGS12 PDZ domain (aa 18–101 of UniProt O14924) were each cloned in frame with an N-terminal glutathione-S-transferase (GST) expression tag, expressed by E. coli fermentation, and purified by GST-affinity column and size-exclusion column chromatographies by GenScript. These recombinant GST-fusion proteins were stored at −80 °C in a storage buffer (150 mM NaCl, 10 mM Tris-HCl pH 7.6, 1 mM EDTA, 5 mM DTT, and 10% glycerol) prior to thawing and supplementation with 0.1% (final) Tween 20 for use in the SPR experiments.
Biotinylated peptides were separately immobilized onto streptavidin-coated gold nanosensor particles (Nicoya) in lane pairs. The reference sensor of the lane held either immobilized mNotch1 or rβ2AR peptide as an established negative control surface, and the test sensor held one of the candidate PDZ domain-interacting peptides. All on-board dilutions and experimental passages of analytes over immobilized peptides were performed with a running buffer consisting of phosphate-buffered saline (137 mM NaCl, 2.7 mM KCl, 4.3 mM disodium phosphate, 1.4 mM monopotassium phosphate; and pH 7.3, from Teknova) supplemented with 0.1% Tween 20 (Nicoya), […] (w/v) bovine serum albumin (BSA; Nicoya), and 3% glycerol (the latter to reduce bulk-shift readings when transitioning from running buffer to protein analyte injections). […] Each sensor was regenerated between each single-stack passage by the injection of a surface regeneration buffer (10 mM NaOH). Non-specific binding to the paired, negative control peptide-bound streptavidin surface was subtracted from each single-stack curve and then binding parameters of the on-rate (ka), off-rate (kd), and dissociation constant (KD) were calculated using the 1:1 Langmuir kinetics model with mass transport limitation (Alto software version 2.3.1; Nicoya). Observed maximal response units (Rmax) and calculated KD values for each single-stack injection were plotted using GraphPad Prism 10.

The target of assay [5] is T2, R59Q-variant human RGS12 PDZ domain GST-fusion protein (human, UniProt O14924 18-101, R59Q).
T2 sequence: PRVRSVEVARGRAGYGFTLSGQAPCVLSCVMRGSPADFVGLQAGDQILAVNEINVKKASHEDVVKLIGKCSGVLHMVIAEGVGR
In words: SPR.

For assay [6], the target named is T3, Wildtype human RGS12 PDZ domain GST-fusion protein (human, UniProt O14924 18-101).
T3 chain: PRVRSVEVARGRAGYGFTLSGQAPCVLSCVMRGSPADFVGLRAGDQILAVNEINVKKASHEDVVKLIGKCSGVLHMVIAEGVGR
Nature of the assay: SPR.

For assay [7], the target named is T2, R59Q-variant human RGS12 PDZ domain …. In words: SPR. This is another data set of the same source.
In assay [8] the target is T3, Wildtype human RGS12 PDZ domain …. In words: SPR.
The target of assay [9] is T4, Wildtype human RGS12 PDZ domain GST-fusion protein (human, UniProt O14924 18-101).
T4 construct: human RGS12 PDZ domain, aa 18-101 of UniProt O14924; also called GST-RGS12 PDZ domain fusion protein; wildtype PDZ protein; not shown: GST, N-terminal, kept
T4 sequence (looked up): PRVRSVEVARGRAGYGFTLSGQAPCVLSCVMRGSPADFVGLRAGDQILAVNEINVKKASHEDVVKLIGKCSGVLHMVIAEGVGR
Nature of the assay: SPR; Alto 8 × 2 digital microfluidics SPR (Nicoya); biotinylated peptides immobilised on streptavidin-coated gold nanosensors; GST-RGS12 PDZ fusion protein as analyte, single-cycle kinetics, 111 nM-9 μM; PBS pH 7.3 with 0.1% Tween 20, BSA, 3% glycerol; mNotch1 or rβ2AR reference sensor subtracted; 1:1 Langmuir model with mass transport limitation; apparent rates, estimated KD. Conditions: both partners purified.

Assay [10] deals with HA-epitope tagged RGS12 full-length protein. Nature of the assay: Co-immunoprecipitation of RGS12 and SAPAP3 in HEK293T cells. Type of assay: binding. The protocol:
Monolayer cultures of the immortalized human embryonic kidney cell line HEK293T (ATCC CRL-3216) were transfected at 75–90% confluence using FuGENE6 transfection reagent (Promega; Madison, WI, USA), according to the manufacturer’s instructions, with 0.5 μg of pcDNA3.1-Flag-SAPAP3 expression plasmid DNA and/or 0.5 μg of pcDNA3.1-HA-RGS12 expression plasmid DNA [103]. Forty-eight hours later, the transfected cells were lysed with ice-cold Triton-X lysis buffer (20 mM Tris-HCl pH 7.5, 150 mM NaCl, 1 mM EDTA, 1 mM EGTA, and 1% Triton X-100, supplemented with protease inhibitors). The lysates were clarified by centrifugation (16,000× g) and then incubated overnight at 4 °C with […] of HA- or Flag-epitope tag-specific antibody followed by precipitation with protein-A/G beads (Santa Cruz Biotechnology; Dallas, TX, USA). The beads were washed 3 times with ice-cold lysis buffer and the proteins were eluted in Laemmli buffer. The samples were resolved on 4–12% precast SDS-polyacrylamide gels (Novex/Invitrogen; ThermoFisher Scientific, Waltham, MA, USA), transferred to nitrocellulose, and immunoblotted with horseradish peroxidase (HRP)-conjugated primary antibodies to HA- or Flag-epitope tags and visualized by ECL chemiluminescence (GE Healthcare; Chicago, IL, USA).

Turning to “biotin-NH-SATESADSIEIYIPEAQTRL-carboxylic acid”, the “SPR binding of recombinant RGS12 PDZ domain (in words)” value in [1] is reported as “bound specifically”.

Regarding “RTLRLKQPSTPTRTAV-OH [C-terminal tail of rat MEK2, 16-mer]”, in assay [2], the “SPR binding to rat RGS12 PDZ domain (in words)” value was “direct and selective binding”.

Take “biotin-Ahx-QGRNCNTNDSPL-carboxylic acid [rat beta2-adrenergic receptor]”: the “binding of negative control to RGS12 PDZ domain (in words)” value in assay [3] is reported as “no demonstrable affinity”.

Turning to “biotin-Ahx-RTLRLKQPSTPTRTAV-carboxylic acid [TRTAV-COOH of MEK2]”, in assay [4], the “KD of R59Q variant relative to wildtype (fold less than the wildtype)” value was “at least 2 fold” and the “maximal binding signal (Rmax), R59Q in comparison to wildtype” value is “less maximal binding signal (Rmax)”.

“VGSSSANTSTTL-OH [C-terminal tail of rat CXCR2, 12-mer]”: the “SPR binding to rat RGS12 PDZ domain (in words)” value in assay [2] was “direct and selective binding”.

“biotin-Ahx-PSQITHIPEAFK-carboxylic acid [mouse Notch1]”: the “binding of negative control to RGS12 PDZ domain (in words)” value in assay [3] is “no demonstrable affinity”.

biotin-NH-SATESADSIEIYIPEAQSRL-amide: the “SPR binding of recombinant RGS12 PDZ domain (in words)” value in assay [1] is on record as “no appreciable binding”.

B1: CXCR2 C-terminal peptide, biotin-Ahx-VGSSSGHTSTTL-carboxylic acid (peptide)
peptide: {Biotin-Ahx}-VGSSSGHTSTTL-OH
SMILES: CC(C)C[C@H](NC(=O)[C@@H](NC(=O)[C@@H](NC(=O)[C@H](CO)NC(=O)[C@@H](NC(=O)[C@H](Cc1c[nH]cn1)NC(=O)CNC(=O)[C@H](CO)NC(=O)[C@H](CO)NC(=O)[C@H](CO)NC(=O)CNC(=O)[C@@H](NC(=O)CCCCCNC(=O)CCCC[C@@H]1SC[C@@H]2NC(=O)N[C@@H]21)C(C)C)[C@@H](C)O)[C@@H](C)O)[C@@H](C)O)C(=O)O
notes: C-terminus of CXCR2; also called CXCR2 C-tail peptide TSTTL-COOH; CXCR2 TSTTL-COOH biosensor; source: synthetic peptide (GenScript)
The koff is a measure of how fast the partners let go of each other. A high value points to fast dissociation. A word on the Kd: it is the concentration at which binding is half-saturated. A higher Kd goes with lower affinity. Regarding B1, the koff amounted to 0.00193 s⁻¹ in assay [5] and 0.000542 s⁻¹ in [6]. Moreover, the dissociation constant Kd in [7] came out at 1.28 µM; in assay [8], 0.45 µM. Besides, the binding result in assay [9] was “binds”.

B2: SAPAP3 C-terminal peptide, biotin-Ahx-IYIPEAQTRL-carboxylic acid (peptide)
peptide: {Biotin-Ahx}-IYIPEAQTRL-OH
SMILES: CC[C@H](C)[C@H](NC(=O)CCCCCNC(=O)CCCC[C@@H]1SC[C@@H]2NC(=O)N[C@@H]21)C(=O)N[C@@H](Cc1ccc(O)cc1)C(=O)N[C@H](C(=O)N1CCC[C@H]1C(=O)N[C@@H](CCC(=O)O)C(=O)N[C@@H](C)C(=O)N[C@@H](CCC(N)=O)C(=O)N[C@H](C(=O)N[C@@H](CCCNC(=N)N)C(=O)N[C@@H](CC(C)C)C(=O)O)[C@@H](C)O)[C@@H](C)CC
notes: C-terminus of SAPAP3; the last ten residues of the human 20-mer aa 960-979; also called SAPAP3 C-tail peptide AQTRL-COOH; source: synthetic peptide (GenScript)
On to B2, for which the koff in assay [5] amounted to 0.00923 s⁻¹; in assay [6] it was 0.000383 s⁻¹. Further, the Kd in assay [7] came to 0.6 µM; in [8], 0.26 µM. Further, the binding result in assay [9] was “binds”.

B3: MEK2 C-terminal peptide, biotin-Ahx-RTLRLKQPSTPTRTAV-carboxylic acid (peptide)
peptide: {Biotin-Ahx}-RTLRLKQPSTPTRTAV-OH
SMILES: CC(C)C[C@H](NC(=O)[C@H](CCCNC(=N)N)NC(=O)[C@H](CC(C)C)NC(=O)[C@@H](NC(=O)[C@H](CCCNC(=N)N)NC(=O)CCCCCNC(=O)CCCC[C@@H]1SC[C@@H]2NC(=O)N[C@@H]21)[C@@H](C)O)C(=O)N[C@@H](CCCCN)C(=O)N[C@@H](CCC(N)=O)C(=O)N1CCC[C@H]1C(=O)N[C@@H](CO)C(=O)N[C@H](C(=O)N1CCC[C@H]1C(=O)N[C@H](C(=O)N[C@@H](CCCNC(=N)N)C(=O)N[C@H](C(=O)N[C@@H](C)C(=O)N[C@H](C(=O)O)C(C)C)[C@@H](C)O)[C@@H](C)O)[C@@H](C)O
notes: C-terminus of MEK2; also called MEK2 C-tail; TRTAV-COOH of MEK2; source: synthetic peptide (GenScript)
On to B3, for which the binding result in assay [9] was “binds”.

B4: Flag-epitope tagged SAPAP3: Flag-epitope tagged SAPAP3 full-length protein expressed in HEK293T cells (protein, UniProt O95886 1-979, looked up)
chain: MRGYHGDRGSHPRPARFADQQHMDVGPAARAPYLLGSREAFSTEPRFCAPRAGLGHISPEGPLSLSEGPSVGPEGGPAGAGVGGGSSTFPRMYPGQGPFDTCEDCVGHPQGKGAPRLPPTLLDQFEKQLPVQQDGFHTLPYQRGPAGAGPGPAPGTGTAPEPRSESPSRIRHLVHSVQKLFAKSHSLEAPGKRDYNGPKAEGRGGSGGDSYPGPGSGGPHTSHHHHHHHHHHHHQSRHGKRSKSKDRKGDGRHQAKSTGWWSSDDNLDSDSGFLAGGRPPGEPGGPFCLEGPDGSYRDLSFKGRSGGSEGRCLACTGMSMSLDGQSVKRSAWHTMMVSQGRDGYPGAGPGKGLLGPETKAKARTYHYLQVPQDDWGGYPTGGKDGEIPCRRMRSGSYIKAMGDEESGDSDGSPKTSPKAVARRFTTRRSSSVDQARINCCVPPRIHPRSSIPGYSRSLTTGQLSDELNQQLEAVCGSVFGELESQAVDALDLPGCFRMRSHSYLRAIQAGCSQDDDCLPLLATPAAVSGRPGSSFNFRKAPPPIPPGSQAPPRISITAQSSTDSAHESFTAAEGPARRCSSADGLDGPAMGARTLELAPVPPRASPKPPTLIIKTIPGREELRSLARQRKWRPSIGVQVETISDSDTENRSRREFHSIGVQVEEDKRRARFKRSNSVTAGVQADLELEGLAGLATVATEDKALQFGRSFQRHASEPQPGPRAPTYSVFRTVHTQGQWAYREGYPLPYEPPATDGSPGPAPAPTPGPGAGRRDSWIERGSRSLPDSGRASPCPRDGEWFIKMLRAEVEKLEHWCQQMEREAEDYELPEEILEKIRSAVGSTQLLLSQKVQQFFRLCQQSMDPTAFPVPTFQDLAGFWDLLQLSIEDVTLKFLELQQLKANSWKLLEPKEEKKVPPPIPKKPLRGRGVPVKERSLDSVDRQRQEARKRLLAAKRAASFRHSSATESADSIEIYIPEAQTRL
modifications: full-length Flag epitope tag
For B4, in assay [10] (IP with anti-Flag antibody, Triton-X lysis buffer pH 7.5), the co-immunoprecipitation result was “co-immuno-precipitate”. Besides, the reciprocal co-immunoprecipitation entry in assay [10] (IP with anti-HA antibody) is recorded as “reciprocal co-immunoprecipitation”.
